The target of one assay is VEGF (UniProt P15692). Put plainly: co-incubation of VEGF with particles, particulate removed, free VEGF in supernatant measured by ELISA.
The target of assay [1] is T1, ABRAXANE® / albumin-bound paclitaxel (UniProt P02768 25-609, paclitaxel non-covalently bound).
T1 construct: Nanoparticle of many albumin molecules with paclitaxel, not a single polypeptide; also called ABX; Paclitaxel Albumin-stabilized Nanoparticle Formulation
Put plainly: flow cytometry of particles stained with goat anti-mouse IgG and PE.

For assay [2], the target named is AB160 (nanoparticle of albumin-bound paclitaxel and bevacizumab, ratio about 10:4, average size 160 nm) (UniProt P02768). The assay is described as above.
The target in assay [3] is T1, ABRAXANE® / albumin-bound paclitaxel. Nature of the assay: co-incubation of VEGF with particles, particulate removed, free VEGF in supernatant measured by ELISA.
Description: AB160 was prepared as described and 2000 μg/ml VEGF was added to the AB160 complex or ABX alone. The VEGF was incubated with the nanoparticles for 2 hours at room temperature. The suspension was spun at 6000 rpm for 15 minutes, supernatants were collected and free VEGF was measured by ELISA. Briefly, ELISA plates were coated with capture antibody overnight at 4° C. Plates were washed, blocked and standards and samples were added. After washing, detection antibody was added and plates were developed with substrate (R and D Systems, Minneapolis, MN). Absorbance was measured at 450 nm using a Versamax ELISA plate reader (Molecular Devices, Sunnyvale, CA). The concentration of unbound VEGF was determined with a standard curve from 0 to 2000 μg/ml.

For the molecule “AB160 (nanoparticle of albumin-bound paclitaxel and bevacizumab, ratio about 10:4, average size 160 nm) (from UniProt P02768 25-609)”, in the assay with VEGF, the % VEGF unbound is under 10%.
In the case of goat anti-mouse IgG (antibody), the % positive in assay [1] was found to be 6.7%; in assay [2], 41.2%.

B1: VEGF (ligand, UniProt P15692-4 27-191, looked up)
chain: APMAEGGGQNHHEVVKFMDVYQRSYCHPIETLVDIFQEYPDEIEYIFKPSCVPLMRCGGCCNDEGLECVPTEESNITMQIMRIKPHQGQHIGEMSFLQHNKCECRPKKDRARQENPCGPCSERRKHLFVQDPQTCKCSCKNTDSRCKARQLELNERTCRCDKPRR
As to B1, the binding result in assay [3] is given as “no binding (tested: 2000 µg/ml VEGF)”.

The values are drawn from patent US20250170067A1 (published 2025).
